test: yeast display, Sf9 membrane polyspecificity reagent, FACS + sequencing; frameworks hold sequencing errors
How it was run: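 Genes from sorted yeast were amplified by colony PCR, read by MiSeq 2 × 250 sequencing and filtered on CDR length. These cells carried a synthetic nanobody library in Saccharomyces cerevisiae BJ5465 and were sorted by FACS into low and high (top ~1%) gates on anti-HA and streptavidin fluorescence. Polyreactivity is labelled according to the gate of origin.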

Sequence	polyreactivity (PSR sort gate)
QVQLGESGGGLVQAGGSLRLSCAASGSTFGFYAMGWYRQAPGKERELVAAISGRGGSTYYADSVKGRFTISRDNAKNTVYLQMNSLKPEDTAVYYCAKEFKYWGYPYDYWGQGTQVTVSS	low polyreactivity
QVQLGESGGGLVQAGGSLRLSCAASGSTFNLYAMGWYRQAPGKERELVAAISFSGGSTYYADSVKGRFTISRDNAKNTVYLQMNSLKPEDTAVYYCAAVESSYEAWDTYYYWGQGTQVTVSS	low polyreactivity
QVQLGESGGGLVQAGGSLRLSCAPSGSTFNRFARGWYILAPGNVRELVAAISRSGGSTYYADSVKGRFTISRDNPKTTLYLQMNSLKPEDTAVYYCAADRTGHGFGYWGQGTQVTVSS	high polyreactivity
QVQLGESGGGLVQAGGSVRLICAASGGIFEWNAMGWYRQAPGKERELDAAISNTGGSTSYADSVKGRFTISRDNAMNSVYLQMNCLKPEDTAVYYCNRFPPRRYYARYYSWGQGTQVTVSS	high polyreactivity
QVQLGESGGGLVQAGGTLRLTCAASGSIFNGNAMGGSRQAPGKERELVAAISRNGGSTYYAVSVKGRFTISRDNAKNTVYLQMNSQKPEDTAVYYCDTDLTVYYSYYWMYWGQGTQVTVSS	low polyreactivity
QVQLGESGGGLVQAVGSLRLSCAASGSTFRGNAMGWYRQAPAKARELVAANTSDGSTSYADSVKGRFTISRDNAKNTVYLQMNSLKPEDTAVYYSNADYHQSIWEAVDFEYDYWGQGTQVTVSS	low polyreactivity
QVQLGESGVGLVQAGGSLRLSCASSGRTLPVNAMGWYRQAPGKERELVAGISWGGDSTYYADSVKGRFTISRDNAKNSVYLQMNSLKPEDTAVYYCAASSSTWPGDFWGQGTQVTVSS	low polyreactivity
QVQLGESRGGLVQAGGSLRLSCAASGIIFTFNAMVWYSQAPGKERELVAGISQGGSSTNYADSVKGRFTISRDNAKNTVDLQRNSLKREVTAVYYCAAYVDIVGDYWVVGYYYWGQGTQVTVSS	low polyreactivity
QVQLHESGGGLLQAGGGLRLSCAASGSISSTGFMGWYRQAPGKEREPVAAIAPGTTTYYADSVKGRFTISRDNAKNTVYLQMNSLRPEDTAVYYCAVFTDNRVAFLYWGQGTQVTVSS	low polyreactivity
QVQLHESGGGLVHACGSLRPSCAASGSISDSWTMSWYRQAPGKEREFVAGITWGGTTNYADSVKRRFTISRDNAKNNVFLQMNSLKPEDTAVYYCAAVSYYGVDQYRITVYTYEYWGQGTQVTVSS	low polyreactivity
QVQLHESGGGLVQAGGGLRLSCAASGSISSTGFMGWYRQAPGKEREPVAAIAQGTTTYYAESVKGRFTISRDNAINTVYLQMNSLRPEDTAVYYCAVFTDNRVAFLYWGQGTQVTVRS	low polyreactivity
QVQLHESGGGLVQAGGGLRLSCASSGSISSTGFMGWYRQAPGKEREPVAAIAPGTTTYYADSVKGRFTIRRDNAKNTVYLQMNSLRPEDTAVYYCAVFTDNRVAFLYWGQGTQVTVSS	low polyreactivity
QVQLHESGGGLVQAGGSLRLSCAAIGTISYSGPMGWYRQAPGKEREFVAGIGVGSNTNYADSVKGRYTIIRDNAKNTVYLQMNSLKPEDSAVYYCAVGGYAPLGRPYWGQGTQVTVSS	low polyreactivity
QVQLHESGGGLVQAGGSLRLSCAASGTISYAGPMGWSRQAPGKEREFVAGIGVGSNTNYADSVKGRYTIIRANAKNTVALQMTCLKPEDTAVYYCAVGGYAPLGRPYWGQGTHVTVSS	low polyreactivity
QVQLHESGGGLVQAGGSLRLSCAASGTISYAGPMGWYRQAPGKEREFVAGIGVGSNTNYADRVKGRYTIIRDNAKNTEYLQRNSLKPEDTALYYCAVGGYAPLGRPYWGQGTQVTVSS	low polyreactivity
QVQLHESGGGLVQAGGSLRLSCAASGTISYAGPMGWYRQAPGKEREVVAGIGVGSNTIYADSVKGRYTIIRDNAKKTVYLQMKSLKPEDTEVYYCAVGGYAPLGRPYWGQGTQVTVSS	low polyreactivity
QVQLHESGGGLVQAGGSLRLSCAASGTISYAGPMGWYRQAPGTEREFVAGIGVGSNTNYADSVKGRYTIIRDNAKNTVYLQMNSLKPEDTAVYYCAVGGYAPLGRPYWGQGTQVTVSS	low polyreactivity
QVQLHESGGGLVQAGGSLRRSCAPSGTISYAGPMGWYRQAPGKEREFVAGIGVGSNTNYADSVKGRYTIIRDNAKNTVYLQMNSLKPEDTAVYYCAVGGYAPLGRPYWGQGTQVTVSS	low polyreactivity
QVQLIESGGGIVQAGGSLRLSSAASGIIFDWYTMGWYRQATGKERELVAAISWRGGRTYYADSVKGRFTISRDNAKNTVYLQMNSLKAVDTGVYYCAAEAPVQPFYVFNSGIYDLDYWGQGTHVTVSS	low polyreactivity
QVQLIESGGGLVQAGGSLRLSCAASGRTFRYNAMGWYRQAPGKERELVAGISTGGSTYYADSVKGRFTISRDNAKNTVYLQMNSLKPEDTAVYYCARYYHARPNGPRSDDYDYWGQGTQVTVSS	low polyreactivity
QVQLLDAGGGLDQAGGSLRLRCAASGSIFRYYPMGWYRQAPGKQREMVASISWSGTSTYYADSVKGRFTISRDNAKNTVYLPRNSLKPEDTAVYYCNKDRWGRYYTRYDYWGQGTQVTVSS	high polyreactivity

Sequence	polyreactivity (PSR sort gate)
QVQLLDSGGGLVQAGGSLRLSCAASGSTIAYYDMGWYRQAPGKERELVAAISWSGGSTYYADSVKGRFTISRENAKKTVYLQMNSLKPEDTAVYYCNRLLGYFTDSSGSPMGYWGQGTQVTVSS	high polyreactivity
QVQLLESGGCLGLAGASLRLSCAASGSTFSTYAMGWYRPAPGKERELVAAITRRGGRTYYADSVKGRFTISRDNAKNTVYLQMNCLKPEDTAVYSCNVLSGLFVQAEYDYWGQGTKVTVSS	high polyreactivity
QVQLLESGGGIVQEGGSLRLSCAASGRIFSPYAMGWYRQAPGKERELVAAITWSGVSTYYADSVKGRFTLSRDNAKNSVYFQMNSLKPEDTAVYYSAVDPRGHEGVRYNYWVQGTQVTVSS	low polyreactivity
QVQLLESGGGLFQAGGSLRLICAASGRIFDENAMGWYRQAPRKDREMVAAISWSGGITYYADSVKGRFTISRDYAKNNVYLQMNSLKPEDTAVYYCAADIFQGYTFYQGYPGGAGYWGQGTQVTVSS	low polyreactivity
QVQLLESGGGLVKAGGSLRLSCPASGIIFYEYVMGWYRQAPGKERELVAAINRSGGSKYYADSVKGRFTISRDNAKNTVYLQMNSLKPEDTAVYYCAAKPYYFYGMDYWGQGTQVTVSS	high polyreactivity
QVQLLESGGGLVLAGGRIRLSCAASGRTYRYTMGWNRQSPGKERELVAAISRSGGSTYYADSVKGRFTISRDNAKNSFYLQMNSLKPEDTAVYYCAKVIYRYNETYDYWGQGTQVTVSS	high polyreactivity
QVQLLESGGGLVQAGGSLPVSCAASGSTFDTNDMVWYRQAPGKERELVAAISSGGDYADSVKGRFTISRDNAKNTVYLQMNSLKPEDTAVYYCAKDDTKWGQGTQVTVSS	low polyreactivity
QVQLLESGGGLVQAGGSLRISCAASGFIFDYYMGWYRQAPGKERELVARISYTGGSTYYADSVKGRFTISRDNAKNTVYLQMNSLKPEDTAVYYCATRGAEAERFASYEFDYWGQGTQVTVSS	low polyreactivity
QVQLLESGGGLVQAGGSLRLRCAASGTIFRISYMGSYRHAPGKEREFVAAITYCANTYYADSGKGRFTISRDNAKKTVYLHMNSLKPEDTAVYYCAVPPVKETFLDYWGQGTQVTVSS	low polyreactivity
QVQLLESGGGLVQAGGSLRLRCASSGRIFVYYAMGWYRQAPGKERELVAANRWTGGSTYYADSVKGRFTISRDNAKNTVYLQMNSLKPEDTAVYYCATVNRYGHFNYWGQGTQVTVSS	high polyreactivity
QVQLLESGGGLVQAGGSLRLSCAASGFSFEYYAMGWSRQAPGKDRELVAAIRSVSGTNYADSVKGRFTISRDNAKNTVYLQMNSQKPEDTAVYYCAKLRYPYLFLDDSEYWGQRTQVTVSS	low polyreactivity
QVQLLESGGGLVQAGGSLRLSCAASGFTFKRNAKGWYRQAPGKEREFVAAITSSGGSTYYADSVKGRFTISRDNAKNTVYLQMNSLKPEDTAVYYCAARSKGAYPTRPLPGGYGYWGQGTQVTVSS	high polyreactivity
QVQLLESGGGLVQAGGSLRLSCAASGFTFWYYAMVWYRQAPGKERELVAAITRGGSTNYADSVKGRFTISRDNAKNTVYLQMNSLKPEDTAVYYCAATIYDYNRAGKYYYWGQGTQVTVSS	high polyreactivity
QVQLLESGGGLVQAGGSLRLSCAASGIIFGYYAMGWYRQAPGKERELVAAITWSGGSTYYADSVKGRFTISRDNAKNTVYLQMNSLKPEDTAVYYCNADDDGRVSSTIVEYWVQGTQVTVSS	low polyreactivity
QVQLLESGGGLVQAGGSLRLSCAASGITFLLNAMGWYRQAPGKERELVAAISRSGGRTYYADSVKGRFTISRDNAKNTVYLQMNSLKPEDTAVYYCAVVTQFGDGYYWGQGTQVTVSS	high polyreactivity
QVQLLESGGGLVQAGGSLRLSCAASGLIFRSYAMGWYRQAPGKERELVARISIRGGSTYYADSVKGRFTISRDNAKNTVYLQMNCLKPEDTAVYYCAAVGYFGGYRYDYWGQGTQVTVSS	high polyreactivity
QVQLLESGGGLVQAGGSLRLSCAASGNIFQVNAMGWYRQAPGKERELVASISRRGGSTNYADSVKGRFTISRDNAKNTVYLQMNSLKPEDTAVYYCAAVARRGSYLGQRLDYWGQGTQVTVSS	high polyreactivity
QVQLLESGGGLVQAGGSLRLSCAASGRIFRAYAMGWYRQAPGKERELVAAISWRYGSTYYADSVKGRFTISRDNAKNTVYLQMNSVKPEDTAVYYCAAEYDWPGYDYWGQGTQVTVSS	high polyreactivity
QVQLLESGGGLVQAGGSLRLSCAASGRILRINTMGWYRQAPGKERELVAAISWSGGTTYYADSVKGRFTISRDNAKNTVYLQMNSLKPEDTAVYYCNKAIWYAEYDYWGQGTQVTVSS	low polyreactivity
QVQLLESGGGLVQAGGSLRLSCAASGRTFTRNAMGWYRQAPGKERELVAAISYRVGSTYYADSVKGRFTISRDNAKNTVYLQMNSLKPEDTAVYYCATGRGHSYGGDDYWGQGTQVTVSS	high polyreactivity

— the nanobody polyreactivity screen of Harvey et al. (2022)
